# Earlier results in PMC8604983, “A glucagon analogue decreases body weight in mice via signalling in the liver” (Scientific Reports, 2021).
# Conditions: in rodents
# Description: Native glucagon has a half-life of approximately 2 min in rodents. To study the effects of sustained GCGR activation, we developed a glucagon analogue (GCG104) through modification of OXM with the aim of reducing its GLP-1R activity and decreasing its rate of clearance. Select amino acid substitutions were made and a C18 lipidated tail was added (Fig. 1a).
substance,measurement,value
glucagon [Native glucagon],half-life,approximately 2 min
